Test [1] addresses T1, human CD3 expressed on Jurkat cells (human, UniProt P07766 23-207).
T1 construct: CD3 complex on Jurkat cells (ATCC TIB-152); also called huCD3
Nature of the test: flow cytometry on Jurkat cells, 50 nM. On the procedure:
(§1) Binding of the different bispecific constructs to CD3 on Jurkat cells (ATCC #TIB-152), and the respective tumor antigen on target cells, was determined by FACS. Briefly, cells were harvested, counted and checked for viability. 0.15 - 0.2 million cells per well (in PBS containing 0.1% BSA; 90 µl) were plated in a round-bottom 96-well plate and incubated with the indicated concentration of the bispecific constructs and corresponding IgG controls (10 µl) for 30 min at 4° C. For a better comparison, all constructs and IgG controls were normalized to same molarity. After the incubation, cells were centrifuged (5 min, 350 × g), washed with 150 µl PBS containing 0.1% BSA, resuspended and incubated for further 30 min at 4° C. with 12 µl/well of a FITC-or PE-conjugated secondary antibody. Bound constructs were detected using a FACSCantoII (Software FACS Diva). The “(scFv)₂” molecule was detected using a FITC-conjugated anti-His antibody (Lucerna, #RHIS-45F-Z). For all other molecules, a FITC- or PE-conjugated AffiniPure F(ab′)2 Fragment goat anti-human IgG Fcγ Fragment Specific (Jackson Immuno Research Lab # 109-096-098 / working solution 1:20, or #109-116-170 / working solution 1:80, respectively) was used. Cells were washed by addition of 120 µl/well PBS containing 0.1% BSA and centrifugation at 350 × g for 5 min. A second washing step was performed with 150 µl/well PBS containing 0.1% BSA. Unless otherwise indicated, cells were fixed with 100 µl/well fixation buffer (BD #554655) for 15 min at 4° C. in the dark, centrifuged for 6 min at 400 × g and kept in 200 µl/well PBS containing 0.1% BSA until the samples were measured with FACS CantoII. EC50 values were calculated using the GraphPad Prism software.
(§2) In a first experiment, different bispecific constructs targeting human MCSP and human CD3 were analyzed by flow cytometry for binding to human CD3 expressed on Jurkat, human T cell leukaemia cells, or to human MCSP on Colo-38 human melanoma cells.
(In general: Flow cytometry measures light scatter and fluorescence of single cells or particles in a stream.)

Test [2] addresses T2, human MCSP expressed on tumor cells (human, UniProt Q6UVK1 30-2322).
T2 construct: whole, on cells; On Colo-38, WM266-4, MV-3 or MDA-MB-435 cells, as named in each row; also called huMCSP; Melanoma-associated Chondroitin Sulfate Proteoglycan
Nature of the test: flow cytometry on Colo-38 cells, 50 nM. How it is done:
as §1, §2

The target in test [3] is T2, human MCSP expressed on tumor cells. Description: cell-based or functional assay.
Test [4] shares this target. Nature of the test: flow cytometry on WM266-4 cells. How it is done:
as §1
In a final experiment, binding of the “2+1 IgG Crossfab” (SEQ ID NOs 5, 23, 215, 217) and the “2+1 IgG Crossfab, inverted” (SEQ ID NOs 5, 23, 215, 219) constructs to human CD3, expressed by Jurkat cells, and to human MCSP, expressed by WM266-4 tumor cells was determined. As depicted in FIG. 58A and FIG. 58B the binding to human CD3 was reduced for the “2+1 IgG Crossfab, inverted” compared to the other construct, but the binding to human MCSP was comparably good.

Test [5] shares this target. Nature of the test: cell-based or functional assay. This is another data set of the same source.
In test [6] the target is T1, human CD3 expressed on Jurkat cells. Nature of the test: flow cytometry on Jurkat cells. How it is done: as §1
As a control, the equivalent maximum concentration of the corresponding IgGs and the background staining due to the labeled 2ndary antibody (goat anti-human FITC-conjugated AffiniPure F(ab′)2 Fragment, Fcγ Fragment-specific, Jackson Immuno Research Lab # 109-096-098) were assessed as well.

T2 sequence (Q6UVK1 30-2322): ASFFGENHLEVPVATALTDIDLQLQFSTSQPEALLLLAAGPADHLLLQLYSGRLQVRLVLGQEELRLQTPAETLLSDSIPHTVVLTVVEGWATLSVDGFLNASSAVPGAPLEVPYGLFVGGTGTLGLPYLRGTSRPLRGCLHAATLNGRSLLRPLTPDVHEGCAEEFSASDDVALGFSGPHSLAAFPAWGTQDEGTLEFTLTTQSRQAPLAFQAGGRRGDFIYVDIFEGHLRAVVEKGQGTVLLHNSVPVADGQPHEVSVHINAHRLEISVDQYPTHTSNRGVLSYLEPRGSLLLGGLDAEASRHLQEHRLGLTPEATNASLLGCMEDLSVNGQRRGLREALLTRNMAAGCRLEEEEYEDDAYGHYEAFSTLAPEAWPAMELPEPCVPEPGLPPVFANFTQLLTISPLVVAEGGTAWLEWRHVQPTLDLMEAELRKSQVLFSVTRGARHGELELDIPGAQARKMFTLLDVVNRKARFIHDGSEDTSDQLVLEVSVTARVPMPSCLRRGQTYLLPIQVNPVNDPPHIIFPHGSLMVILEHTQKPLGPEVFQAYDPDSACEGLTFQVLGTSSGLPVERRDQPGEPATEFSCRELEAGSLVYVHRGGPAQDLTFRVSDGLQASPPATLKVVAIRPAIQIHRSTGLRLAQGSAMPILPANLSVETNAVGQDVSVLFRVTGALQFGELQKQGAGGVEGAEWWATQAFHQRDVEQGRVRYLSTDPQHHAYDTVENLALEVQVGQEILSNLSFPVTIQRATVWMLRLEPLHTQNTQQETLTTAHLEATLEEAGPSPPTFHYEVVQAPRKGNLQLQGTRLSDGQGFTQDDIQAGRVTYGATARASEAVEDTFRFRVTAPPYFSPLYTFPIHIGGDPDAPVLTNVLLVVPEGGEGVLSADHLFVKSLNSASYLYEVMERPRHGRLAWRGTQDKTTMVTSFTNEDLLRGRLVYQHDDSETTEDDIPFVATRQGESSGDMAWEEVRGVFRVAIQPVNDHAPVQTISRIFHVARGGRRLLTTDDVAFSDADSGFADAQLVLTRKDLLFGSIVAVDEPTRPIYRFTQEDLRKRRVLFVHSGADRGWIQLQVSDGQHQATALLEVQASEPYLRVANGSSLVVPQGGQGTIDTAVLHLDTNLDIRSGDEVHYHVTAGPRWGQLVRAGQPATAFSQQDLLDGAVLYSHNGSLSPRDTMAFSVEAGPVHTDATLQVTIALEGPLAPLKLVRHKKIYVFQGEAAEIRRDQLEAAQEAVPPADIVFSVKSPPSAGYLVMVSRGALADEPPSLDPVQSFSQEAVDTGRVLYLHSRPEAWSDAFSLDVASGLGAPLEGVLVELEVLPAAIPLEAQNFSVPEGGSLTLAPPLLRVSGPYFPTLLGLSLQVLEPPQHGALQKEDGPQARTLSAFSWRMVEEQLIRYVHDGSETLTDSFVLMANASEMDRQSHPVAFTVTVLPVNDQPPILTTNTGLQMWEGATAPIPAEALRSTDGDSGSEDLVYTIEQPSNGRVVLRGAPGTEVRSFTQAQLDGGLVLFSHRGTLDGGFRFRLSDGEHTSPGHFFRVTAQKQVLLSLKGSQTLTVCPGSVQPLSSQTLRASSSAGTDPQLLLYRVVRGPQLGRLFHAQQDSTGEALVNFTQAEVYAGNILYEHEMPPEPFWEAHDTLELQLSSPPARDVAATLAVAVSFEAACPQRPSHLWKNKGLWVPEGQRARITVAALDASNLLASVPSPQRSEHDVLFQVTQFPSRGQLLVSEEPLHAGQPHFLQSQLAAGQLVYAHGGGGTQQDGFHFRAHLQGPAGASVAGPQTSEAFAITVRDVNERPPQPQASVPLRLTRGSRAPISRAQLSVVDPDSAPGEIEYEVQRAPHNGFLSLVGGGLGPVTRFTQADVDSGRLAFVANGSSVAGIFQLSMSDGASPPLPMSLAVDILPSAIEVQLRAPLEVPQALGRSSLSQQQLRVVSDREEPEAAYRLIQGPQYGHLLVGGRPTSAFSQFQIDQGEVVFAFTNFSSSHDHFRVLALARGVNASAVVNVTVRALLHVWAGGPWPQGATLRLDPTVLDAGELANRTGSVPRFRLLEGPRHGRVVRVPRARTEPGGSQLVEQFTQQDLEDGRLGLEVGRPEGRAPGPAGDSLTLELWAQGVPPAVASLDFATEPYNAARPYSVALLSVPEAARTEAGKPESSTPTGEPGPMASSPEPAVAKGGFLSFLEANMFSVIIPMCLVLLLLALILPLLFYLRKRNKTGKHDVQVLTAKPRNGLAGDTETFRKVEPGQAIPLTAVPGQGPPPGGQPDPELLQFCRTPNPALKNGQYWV
T1 sequence (P07766 23-207 limits assumed): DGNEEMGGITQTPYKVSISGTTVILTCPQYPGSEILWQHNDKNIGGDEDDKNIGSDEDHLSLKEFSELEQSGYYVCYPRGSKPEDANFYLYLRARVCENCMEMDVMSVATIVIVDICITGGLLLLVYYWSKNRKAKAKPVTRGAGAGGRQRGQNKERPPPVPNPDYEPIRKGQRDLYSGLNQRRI

B1: “1+1 IgG scFab, one armed inverted” (anti-MCSP/anti-huCD3) (bispecific antibody)
heavy 1: DIVLTQSPSSLSASLGDRVTISCSASQGIRNYLNWYQQRPDGTVKLLIYYTSSLHSGVPSRFSGSGSGTDYSLTISNLEPEDIATYYCQQYSKLPWTFGGGTKLEIKRTVAAPSVFIFPPSDEQLKSGTASVVCLLNNFYPREAKVQWKVDNALQSGNSQESVTEQDSKDSTYSLSSTLTLSKADYEKHKVYACEVTHQGLSSPVTKSFNRGECSGGGSGGGSEGGGSEGGGSEGGGSEGGGSGGGSGEVQLQESGPGLVKPSQSLSLTCSVTGYSITSGYYWNWIRQFPGNKLEWMGYITYDGSNNYNPSLKNRISITRDTSKNQFFLKLNSVTTEDTATYYCADFDYWGQGTTLTVSSASTKGPSVFPLAPSSKSTSGGTAALGCLVKDYFPEPVTVSWNSGALTSGVHTFPAVLQSSGLYSLSSVVTVPSSSLGTQTYICNVNHKPSNTKVDKKVEPKSCDGGGGSGGGGSGAQDKTHTCPPCPAPEAAGGPSVFLFPPKPKDTLMISRTPEVTCVVVDVSHEDPEVKFNWYVDGVEVHNAKTKPREEQYNSTYRVVSVLTVLHQDWLNGKEYKCKVSNKALPAPIEKTISKAKGQPREPQVCTLPPSRDELTKNQVSLSCAVKGFYPSDIAVEWESNGQPENNYKTTPPVLDSDGSFFLVSKLTVDKSRWQQGNVFSCSVMHEALHNHYTQKSLSLSPGK
heavy 2: not shown
light: not shown
Regarding B1, the binding result in test [1] and in test [2] was “binds” in each case.

B2: “2+1 IgG Crossfab” (anti-MCSP/anti-huCD3); VH/VL exchange (LC007/V9) (bispecific antibody)
heavy 1: DIQMTQSPSSLSASVGDRVTITCRASQDIRNYLNWYQQKPGKAPKLLIYYTSRLESGVPSRFSGSGSGTDYTLTISSLQPEDFATYYCQQGNTLPWTFGQGTKVEIKSSASTKGPSVFPLAPSSKSTSGGTAALGCLVKDYFPEPVTVSWNSGALTSGVHTFPAVLQSSGLYSLSSVVTVPSSSLGTQTYICNVNHKPSNTKVDKKVEPKSCGGGGSGGGGSEVQLQESGPGLVKPSQSLSLTCSVTGYSITSGYYWNWIRQFPGNKLEWMGYITYDGSNNYNPSLKNRISITRDTSKNQFFLKLNSVTTEDTATYYCADFDYWGQGTTLTVSSASTKGPSVFPLAPSSKSTSGGTAALGCLVKDYFPEPVTVSWNSGALTSGVHTFPAVLQSSGLYSLSSVVTVPSSSLGTQTYICNVNHKPSNTKVDKKVEPKSCDKTHTCPPCPAPEAAGGPSVFLFPPKPKDTLMISRTPEVTCVVVDVSHEDPEVKFNWYVDGVEVHNAKTKPREEQYNSTYRVVSVLTVLHQDWLNGKEYKCKVSNKALGAPIEKTISKAKGQPREPQVCTLPPSRDELTKNQVSLSCAVKGFYPSDIAVEWESNGQPENNYKTTPPVLDSDGSFFLVSKLTVDKSRWQQGNVFSCSVMHEALHNHYTQKSLSLSPGK
heavy 2: not shown
light 1: DIVLTQSPSSLSASLGDRVTISCSASQGIRNYLNWYQQRPDGTVKLLIYYTSSLHSGVPSRFSGSGSGTDYSLTISNLEPEDIATYYCQQYSKLPWTFGGGTKLEIKRTVAAPSVFIFPPSDEQLKSGTASVVCLLNNFYPREAKVQWKVDNALQSGNSQESVTEQDSKDSTYSLSSTLTLSKADYEKHKVYACEVTHQGLSSPVTKSFNRGEC
light 2: EVQLVESGGGLVQPGGSLRLSCAASGYSFTGYTMNWVRQAPGKGLEWVALINPYKGVSTYNQKFKDRFTISVDKSKNTAYLQMNSLRAEDTAVYYCARSGYYGDSDWYFDVWGQGTLVTVSSASVAAPSVFIFPPSDEQLKSGTASVVCLLNNFYPREAKVQWKVDNALQSGNSQESVTEQDSKDSTYSLSSTLTLSKADYEKHKVYACEVTHQGLSSPVTKSFNRGEC
notes: also called 2+1 IgG Crossfab (V9)
Broadly, the EC50 is the concentration at which the effect is half-maximal. The low end stands for a more potent agent, the high end for a less potent agent. Take B2: in test [3], the “EC50 [pM] of killing (LDH release) of MV-3 cells, human PBMCs, E:T 10:1, about 24 h” value came to 10 pM and the “EC50 [pM] of killing (LDH release) of WM266-4 cells, human PBMCs, E:T 10:1, about 24 h” value came to 12.4 pM. A half-maximal response in test [4] (EC50) required 0.95 nM. In test [5], the “EC50 of killing (LDH release) of MV-3 cells, human PBMCs, E:T 10:1, 21 h” value was 0.0092 nM and the “EC50 of killing (LDH release) of WM266-4 cells, human PBMCs, E:T 10:1, 21 h” value was 0.0331 nM. Also, the midpoint of the response in test [6], the EC50, lay at 1.66 nM.

B3: “2+1 IgG Crossfab, inverted”; CL/CH1 exchange (LC007/anti-CD3) (bispecific antibody)
heavy 1: not shown
heavy 2: EVQLQESGPGLVKPSQSLSLTCSVTGYSITSGYYWNWIRQFPGNKLEWMGYITYDGSNNYNPSLKNRISITRDTSKNQFFLKLNSVTTEDTATYYCADFDYWGQGTTLTVSSASTKGPSVFPLAPSSKSTSGGTAALGCLVKDYFPEPVTVSWNSGALTSGVHTFPAVLQSSGLYSLSSVVTVPSSSLGTQTYICNVNHKPSNTKVDKKVEPKSCDKTHTCPPCPAPEAAGGPSVFLFPPKPKDTLMISRTPEVTCVVVDVSHEDPEVKFNWYVDGVEVHNAKTKPREEQYNSTYRVVSVLTVLHQDWLNGKEYKCKVSNKALGAPIEKTISKAKGQPREPQVCTLPPSRDELTKNQVSLSCAVKGFYPSDIAVEWESNGQPENNYKTTPPVLDSDGSFFLVSKLTVDKSRWQQGNVFSCSVMHEALHNHYTQKSLSLSPGK
light 1: B2 light 1
light 2: QAVVTQESALTTSPGETVTLTCRSSTGAVTTSNYANWVQEKPDHLFTGLIGGTNKRAPGVPARFSGSLIGDKAALTITGAQTEDEAIYFCALWYSNLWVFGGGTKLTVLSSASTKGPSVFPLAPSSKSTSGGTAALGCLVKDYFPEPVTVSWNSGALTSGVHTFPAVLQSSGLYSLSSVVTVPSSSLGTQTYICNVNHKPSNTKVDKKVEPKSC
notes: also called 2+1 IgG Crossfab, inverted (anti-CD3)
B3: in test [3], the “EC50 [pM] of killing (LDH release) of MV-3 cells, human PBMCs, E:T 10:1, about 24 h” value came out at 3 pM and the “EC50 [pM] of killing (LDH release) of WM266-4 cells, human PBMCs, E:T 10:1, about 24 h” value came to 7.1 pM. For the same molecule, it took 3.4 nM to reach a half-maximal effect in test [4] (EC50). Besides, in test [6], the EC50 amounted to 32 nM.

B4: CD3/MCSP “2+1 IgG Crossfab, inverted”; CL/CH1 exchange (LC007/V9) (bispecific antibody)
heavy 1: not shown
heavy 2: B3 heavy 2
light 1: B2 light 1
light 2: DIQMTQSPSSLSASVGDRVTITCRASQDIRNYLNWYQQKPGKAPKLLIYYTSRLESGVPSRFSGSGSGTDYTLTISSLQPEDFATYYCQQGNTLPWTFGQGTKVEIKSSASTKGPSVFPLAPSSKSTSGGTAALGCLVKDYFPEPVTVSWNSGALTSGVHTFPAVLQSSGLYSLSSVVTVPSSSLGTQTYICNVNHKPSNTKVDKKVEPKSC
notes: also called 2+1 IgG Crossfab, inverted (V9)
Consider B4, for which the “EC50 [pM] of killing (LDH release) of MV-3 cells, human PBMCs, E:T 10:1, about 24 h” value in test [3] turned out to be 4.1 pM. Further, the “EC50 [pM] of killing (LDH release) of WM266-4 cells, human PBMCs, E:T 10:1, about 24 h” value in test [3] came out at 3.7 pM. Further, the EC50 worked out at 0.57 nM in test [4] and 6.1 nM in test [6].

B5: “1+1 IgG scFab, one armed” (anti-MCSP/anti-huCD3) (bispecific antibody)
heavy 1: not shown
heavy 2: not shown
light: B2 light 1
In the case of B5, the binding result in test [1] and in test [2] was “binds” throughout.

B6: “2+1 IgG Crossfab”; CL/CH1 exchange (LC007/anti-CD3) (bispecific antibody)
heavy 1: not shown
heavy 2: B3 heavy 2
light 1: B2 light 1
light 2: B3 light 2
notes: also called 2+1 IgG Crossfab (anti-CD3)
With B6, in test [3], the “EC50 [pM] of killing (LDH release) of MV-3 cells, human PBMCs, E:T 10:1, about 24 h” value was 11 pM and the “EC50 [pM] of killing (LDH release) of WM266-4 cells, human PBMCs, E:T 10:1, about 24 h” value was found to be 11.3 pM. This molecule also gave an EC50 in test [4] of 3.1 nM. Besides, the response in test [6] was half-maximal at 10.3 nM (EC50).

Values taken from patent US20230340160A1 (published 2023).
